Experiments:
[1] = biological target: T1, human neutrophil IL-8 receptor subtype B (huIL8Rb) (human, UniProt P25025); assay: competition with 0.5 nM 125I-labeled IL-8 on CHO cells expressing huIL8Rb; "NC" indicates no competition
Protocol: (§1) receptor subtype B (huIL8Rb), was used in binding assays to test mutant chemokine binding. Approximately 5×10^3 cells were plated in the wells of a 96 well plate and grown for 2 to 3 days. The medium was replaced with phosphate-buffered saline (PBS) supplemented with 0.5% BSA (PBS/BSA), 0.5 nM ^125I-labeled IL-8, and increasing concentrations of the various unlabeled chemokines. The plates were incubated on ice for 90 minutes, the binding mixture was removed, and the cells were washed three times with ice-cold PBS/BSA. The cells were removed from the plates with trypsin-EDTA (Gibco), and the radioactivity of the entire contents of the well determined by gamma counting. Binding of each chemokine to untransfected cells, or binding in the presence of 2 μM unlabeled IL-8, was determined and the value obtained used as the background value. Binding data was plotted as percent of mean specific binding (total binding minus background/specific binding with no competitor). […] "NC" indicates no competition.

[2] = biological target: T1, human neutrophil IL-8 receptor subtype …; assay: competition with 0.5 nM 125I-labeled IL-8 on CHO cells expressing huIL8Rb
Protocol: as §1

| binding result [1] | Ki [2] [nM] | Binder |
| --- | --- | --- |
| no binding |  | wild-type platelet factor 4 (PF4) (ligand) EAEEDGDLQCLCVKTTSQVRPRHITSLEVIKAGPHCPTAQLIATLKNGRKICLDLQAPLYKKIIKKLLES |
|  | 839 | PF4M1 (ligand) EAEEDGDLRCLCVKTTSQVRPRHITSLEVIKAGPHCPTAQLIATLKNGRKICLDLQAPLYKKIIKKLLES |
|  | 52 | PF4M2 (ligand) MSAKELRCQCVKTTSQVRPRHITSLEVIKAGPHCPTAQLIATLKNGRKICLDLQAPLYKKIIKKLLES |

Reference: US5789539, “Chemokine-like proteins and methods of use” (Repligen Corporation, dated 1998)
